Seven molecules from paper PMC10044823, “Defensin Interactions in Relation to Monoclonal and Disease-Related Proteinase 3 Antibodies Binding at the Catalytic Site” (Antibodies, 2023) can be followed below.

In test [1] the target is T1, human α1-antitrypsin (human, UniProt P01009 25-418).
T1 construct: also called AT; α1-AT; source: bought: Calbiochem, Merck
The test is described as follows: ELISA + other: SDS-PAGE; α1-AT binding of the PR3 preparations, 'Determined by ELISA and/or SDS-PAGE'. As to conditions: both partners purified. For orientation: An ELISA detects its analyte on a solid surface through an enzyme-linked reagent.

Test [2] has as its target T2, Proteinase 3 purified in-house from human neutrophil granulocytes (SSI PR3) (human, UniProt P24158, small N-linked glycans on Asn102 and 147; none, one or two alpha-defensins covalently attached to the glycans).
The target of test [3] is T2, Proteinase 3 purified in-house from …. As to the kind of experiment: SPR; Biacore 1000, CM5 chip, SSI PR3 immobilised by amine coupling (1287 RU); MAb (whole IgG) injected at 0.1 and 0.4 µg/mL, 25 °C, HBS-E pH 7.4 (10 mM HEPES, 3 mM EDTA, 150 mM NaCl); Langmuir or drifting baseline fit; 'pseudo-affinity/avidity' constants (apparent). As to conditions: both partners purified. For orientation: Surface plasmon resonance follows binding to a sensor surface in real time, without labels.

Test [4] has the same target. The test is described as follows: ELISA; elution assays with buffers of different pH: pH at which the MAb dissociated from PR3. As to conditions: both partners purified.
The target in test [5] is T3, PR3 peptide 7 (Homo sapiens, UniProt P24158).
T3 construct: By the stated scheme this would be residues 61-80 of mature PR3; source: synthetic peptide (Schäfer-N); not shown: cysteine, N-terminal, kept
T3 chain: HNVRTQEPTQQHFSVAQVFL
As to the kind of experiment: ELISA; synthetic 20-mer PR3 peptides coupled by an N-terminal cysteine to CovaLink-NH plates; MAb in solution; corrected by non-coated wells. The conditions noted are these: both partners purified.

For test [6], the target named is T4, PR3 peptide 2 (Homo sapiens, UniProt P24158).
T4 construct: By the stated scheme this would be residues 11-30 of mature PR3; source: synthetic peptide (Schäfer-N); not shown: cysteine, N-terminal, kept
T4 chain: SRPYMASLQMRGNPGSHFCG
Described as above. The conditions noted are these: both partners purified.

Test [7] concerns the target T5, PR3 peptide 17 (Homo sapiens, UniProt P24158).
T5 construct: By the stated scheme this would be residues 161-180 of mature PR3; source: synthetic peptide (Schäfer-N); not shown: cysteine, N-terminal, kept
T5 chain: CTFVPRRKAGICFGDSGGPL
The description is as above. As to conditions: both partners purified.

For test [8], the target named is T6, PR3 peptide 3 (Homo sapiens, UniProt P24158).
T6 construct: By the stated scheme this would be residues 21-40 of mature PR3; source: synthetic peptide (Schäfer-N); not shown: cysteine, N-terminal, kept
T6 chain: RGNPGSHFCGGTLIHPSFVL
The test is described as above. The conditions noted are these: both partners purified.

Test [9] addresses T7, PR3 peptide 16 (Homo sapiens, UniProt P24158).
T7 construct: By the stated scheme this would be residues 151-170 of mature PR3; source: synthetic peptide (Schäfer-N); not shown: cysteine, N-terminal, kept
T7 chain: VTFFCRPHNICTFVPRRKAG
Described as above. The conditions noted are these: both partners purified.

Test [10] addresses T8, PR3 peptide 20 (Homo sapiens, UniProt P24158).
T8 construct: source: synthetic peptide (Schäfer-N); not shown: cysteine, N-terminal, kept
T8 chain: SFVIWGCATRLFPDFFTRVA
The test is described as above. As to conditions: both partners purified.

The target of test [11] is T9, PR3 peptide 1 (Homo sapiens, UniProt P24158).
T9 construct: By the stated scheme (20-mers, overlap 10, from the mature N-terminus) this would be residues 1-20 of mature PR3; Coupled to CovaLink-NH plates by the extra N-terminal cysteine; source: synthetic peptide (Schäfer-N); not shown: cysteine, N-terminal, kept
T9 chain: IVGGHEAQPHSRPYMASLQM
Described as above. As to conditions: both partners purified.

T1 sequence (P01009 25-418): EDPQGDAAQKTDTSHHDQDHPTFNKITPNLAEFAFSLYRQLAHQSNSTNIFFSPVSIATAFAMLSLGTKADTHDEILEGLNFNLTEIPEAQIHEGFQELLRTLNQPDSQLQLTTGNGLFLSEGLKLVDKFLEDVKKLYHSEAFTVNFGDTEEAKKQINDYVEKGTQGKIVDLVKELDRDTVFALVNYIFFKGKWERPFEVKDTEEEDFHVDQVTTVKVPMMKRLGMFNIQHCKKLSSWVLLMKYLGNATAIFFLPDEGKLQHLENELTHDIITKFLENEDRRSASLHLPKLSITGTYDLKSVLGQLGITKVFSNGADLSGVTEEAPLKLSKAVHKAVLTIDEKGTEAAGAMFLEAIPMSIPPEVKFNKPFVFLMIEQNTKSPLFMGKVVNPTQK

B1: Proteinase 3 purified in-house from human neutrophil granulocytes (SSI PR3) (enzyme, UniProt P24158 28-248, looked up)
chain: IVGGHEAQPHSRPYMASLQMRGNPGSHFCGGTLIHPSFVLTAAHCLRDIPQRLVNVVLGAHNVRTQEPTQQHFSVAQVFLNNYDAENKLNDVLLIQLSSPANLSASVATVQLPQQDQPVPHGTQCLAMGWGRVGAHDPPAQVLQELNVTVVTFFCRPHNICTFVPRRKAGICFGDSGGPLICDGIIQGIDSFVIWGCATRLFPDFFTRVALYVDWIRSTLR
modifications: small N-linked glycans on Asn102 and 147; none, one or two alpha-defensins covalently attached to the glycans
notes: proteinase 3, human, active mature enzyme purified from neutrophil granulocytes; The preparation carries on average 5-6 associated alpha-defensins per PR3 (mostly non-covalent); proteolytically active; also called PR3 (SSI); native PR3 complex
As for B1, the binding result in test [1] is listed as “binds”.

B2: Proteinase 3 from Arotec (Arotec PR3) (enzyme, human, UniProt P24158 28-248, looked up)
chain: IVGGHEAQPHSRPYMASLQMRGNPGSHFCGGTLIHPSFVLTAAHCLRDIPQRLVNVVLGAHNVRTQEPTQQHFSVAQVFLNNYDAENKLNDVLLIQLSSPANLSASVATVQLPQQDQPVPHGTQCLAMGWGRVGAHDPPAQVLQELNVTVVTFFCRPHNICTFVPRRKAGICFGDSGGPLICDGIIQGIDSFVIWGCATRLFPDFFTRVALYVDWIRSTLR
modifications: small N-linked glycans on Asn102 and 147; none, one or two alpha-defensins covalently attached to the glycans
notes: proteinase 3, human, commercial preparation; On average 1-2 associated defensins per PR3; source: bought: Arotec
On to B2, for which the binding result in test [1] is given as “binds”.

B3: Proteinase 3 from Wieslab/Eurodiagnostica (Wieslab PR3) (enzyme, human, UniProt P24158 28-248, looked up)
chain: IVGGHEAQPHSRPYMASLQMRGNPGSHFCGGTLIHPSFVLTAAHCLRDIPQRLVNVVLGAHNVRTQEPTQQHFSVAQVFLNNYDAENKLNDVLLIQLSSPANLSASVATVQLPQQDQPVPHGTQCLAMGWGRVGAHDPPAQVLQELNVTVVTFFCRPHNICTFVPRRKAGICFGDSGGPLICDGIIQGIDSFVIWGCATRLFPDFFTRVALYVDWIRSTLR
modifications: small N-linked glycans on Asn102 and 147; none, one or two alpha-defensins covalently attached to the glycans
notes: proteinase 3, human, commercial preparation; The preparation carries on average 5-6 associated alpha-defensins per PR3; proteolytically active; also called PR3 (Wieslab); source: bought: Wieslab/Eurodiagnostica
B3: the binding result in test [1] is “binds”.

B4: 172-03 (antibody, V domains shown)
VH: QVQLQQAGAELVKPGASVKLSCKASGYTFTNYWMHWVKQRPGQGLEWIGEINPTNGGINYNEEFIKKATLTADKSSNTAYMQLSGLTSEDSAVYFCLIEIMTGEGYWGQGTSLTVSS
VL: DILMTQSPSSLTVSAGEKVTMSCKSSQNLLVSGNQNNYLAWHQQKPGRSPKMLIIWASTRVSGVPDRFIGSGSGTDFTLTINSVQAEDLAVYYCQQSFSAPLTFGAGTKLELK
For the molecule B4, the binding result in [2] is “binds”.

B5: PR3 MAb HYB 172-04 (antibody, V domains shown)
VH: EVKLEQSGPDLVKPGASVKISCKASGYSFTGYYLHWVKQSHGKSLEWIGRVNPNNDITTYNQKFKDKAILTVDKSSSTAYMEFRSLTSEDSAVYYCAGGGNALDYWGQGTSVTVSS
VL: EIVLTQSPAIMSASLGEEITLTCSASSSVSYMHWYQQKSGTSPKLLIYSTSNLASGVPSRFSGSGSGTFYSLTISSVEAEDAADYYCHQWSSYGTFGGGTKLEIK
notes: Mouse IgG2a,κ (clone 4A3); also called clone 4A3; source: mouse hybridoma, produced in-house
Broadly, the koff is the rate constant with which the complex falls apart. The term kon denotes a measure of how fast the partners come together. B5: in [3], the Ka was 1.8e+10 M⁻¹. Further, in test [3], the Kd came to 55.5 pM. Moreover, the koff in [3] came out at 0.000571 s⁻¹. Further, the kon in test [3] was 1.03e+07 M⁻¹ s⁻¹. In test [4], the “Elution pH (High)” value was 12 pH. Moreover, the “Elution pH (Low)” value in test [4] was 2 pH. The binding result in test [5], in test [6], in test [7], in test [8], in test [9] and in test [10] was “binds” each time. In addition, in test [11], the binding result is “binds”.

B6: PR3 MAb HYB 172-01 (antibody, V domains shown)
VH: EVQLEQSGGDLVKPGGSLKLSCAASGFTFSTYGMSWVRQTPDKRLEWVATFVSGGSYNYYPDSVKGRFAISRDNAKNALYLQMSSLKSEDTAMYYCVRRGASYDALDYWGQGTSVTVSS
VL: SIVMTQTPKFLLVSAGDRITITCKASQSVSNDVAWYQQKPGQSPKLLIYYASNRYTGVPDRFTGSGYGTDFTFTISTVQAEDLAVYFCQQDYSSPFTFGSGTKLEIK
notes: Mouse IgG1,κ (clone 6A6); raised against a Triton X-100 extract of purified neutrophil granulocyte alpha-granules; also called clone 6A6; source: mouse hybridoma, produced in-house
On to B6, for which, in [3], the Ka turned out to be 5.23e+13 M⁻¹, the Kd was found to be 0.0191 pM, the koff is 5.21e-08 s⁻¹ and the kon was found to be 2.72e+06 M⁻¹ s⁻¹. Moreover, in test [4], the “Elution pH (High)” value was determined as 12 pH and the “Elution pH (Low)” value worked out at 4 pH. Besides, the binding result in test [7] was “binds”.

B7: PR3 MAb HYB 172-05 (antibody, V domains shown)
VH: EVQLQQSGPDLVKPGASVKISCKASGYSFTGYYLHWVKQSHGKSLEWIGRVNPNNDITTYNQKFKDKAILTVDKSSSTAYMEFRSLTSEDSAVYYCAGGGNALDYWGQGTSVTVSS
VL: RIVMTQTPKFLLVSAGDRVTITCKASQSVSNNVGWYQQKTGQSPKLLIYYASNRYTGVPDRFTGSGYGTDFTFTISTVQAEDLAVYFCQQDYNSPYTFGGGTKLEIK
notes: Mouse IgG2a,κ (clone 4A5); also called clone 4A5; source: mouse hybridoma, produced in-house
For the molecule B7, in test [3], the Ka was determined as 1.81e+11 M⁻¹, the koff is 6.84e-05 s⁻¹ and the kon is 1.24e+07 M⁻¹ s⁻¹. In [4], the “Elution pH (High)” value stood at 12 pH and the “Elution pH (Low)” value is 2 pH. Also, the binding result in [7] is given as “binds”.
